Fewer inactive variants are shown than the library holds.
B1: TPR 5TU (parent)
chain: GGAUCUUCUCGAUCUAACAAAAAAGACAAAUCUGCCACAAAGCUUGAGAGCAUCUUCGGAUGCAGAGGCGGCAGCCUUCGGUGGCGCGAUAGCGCCAACGUUCUCAACUAUGACACGCAAAACGCGUGCUCCGUUGAAUGGAGUUUAUCAUG

Variants of: B1
Experiment: polymerase ribozyme fitness, log enrichment relative to wild type (log ratio); higher = more active; in vitro selection for triplet polymerase activity
In short: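 Fitness measures genotype enrichment against wild-type enrichment on a logarithmic scale, with inverse-variance-weighted averaging of replicates. The logarithm is base 2, and genotypes were kept only with ≥10 input reads and ≥1 read per output in Illumina sequencing. The sequenced libraries came from one triplicate in vitro selection round, including frozen incubation at −7 °C, of PCR-built, transcribed mutant libraries of each subunit of a heterodimeric triplet polymerase ribozyme.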

| Variant | polymerase ribozyme fitness (log ratio) |
| --- | --- |
| C43U U61A G86U A142G A147U | ≤ -4.2 |
| U45A C75U U90A C93U A119U G141C | ≤ -4.2 |
| U44C G59A A91U | -4 |
| U44A U104A A115G | ≤ -4.2 |
| G42C U44A A49C G126C C131A A142G A147U | ≤ -4.2 |
| U45A G83U C85G C95U | ≤ -4.2 |
| C43A A47C U53A A91G | ≤ -4.2 |
| G42U U45A C95U C149A | ≤ -4.2 |
| U45G A47U A49C U61A C76A C87A U146G | ≤ -4.2 |
| U45A A115C | ≤ -4.2 |
| U45C U56A A91G U111A | ≤ -4.2 |
| C43U U56A C87A G152U | ≤ -4.2 |
| U45A U55A C93U | -3.88 |
| U44A G80A A121U U144A | ≤ -4.2 |
| G42U G59U G84A C85U C103G A119G | ≤ -4.2 |
| C43U A47U G59A C75A C93U G126C G133A | ≤ -4.2 |
| U45A C51A G84A | ≤ -4.2 |
| G42U A98U U102G A120U C132G U135A A147C | ≤ -4.2 |
| C43A G48U A60G G83C C87U G126U A138C | ≤ -4.2 |
| C43U C54A U55C C85U C99G A147G | ≤ -4.2 |
| U44A C75U C76G U77G G92U A115U G140A G152C | ≤ -4.2 |
| C43G U55A U61G G86A A89G A122U | ≤ -4.2 |
| U45A C54U U61A C85U | ≤ -4.2 |
| U44A C76U G86U A121U | -3.86 |

| Variant | polymerase ribozyme fitness (log ratio) |
| --- | --- |
| U45A A73U G83A G128U U151A | ≤ -4.2 |
| C43G U56G C96U U139G U148G | ≤ -4.2 |
| U45A C54A C95A A113G C129A | ≤ -4.2 |
| C43U C96G | ≤ -4.2 |
| U44A G58U G70C C76A A91G A115C | ≤ -4.2 |
| U44G G48U G86A G100C C105A G126A U134C | ≤ -4.2 |
| C43U G50C C75G C79G G84A | ≤ -4.2 |
| U44A C76U | -4.19 |
| C43U C57G G70A A89G C93U | ≤ -4.2 |
| C43A A73G G83A A89U U90C G136C G141C | ≤ -4.2 |
| U44A C76A U82G G100A C103G A137G | ≤ -4.2 |
| C43A U44G A64C C118G C131G A137G G152U | ≤ -4.2 |
| U45G A47G C54U C93G | ≤ -4.2 |
| G42C U44A A52G G70U G83C | ≤ -4.2 |
| C43A U53G U56G A97U A137G | ≤ -4.2 |
| U44A G48A G58C G83A | ≤ -4.2 |
| G42U A60G U61G C96G C99G C125U A150C | ≤ -4.2 |
| U45G C54A C87G A121U C123G | ≤ -4.2 |
| C43A G58C C76A U102C G141A | ≤ -4.2 |
| U44A C79G C85A U111G G133C | ≤ -4.2 |
| U44C G58A A64G C93G A119G | ≤ -4.2 |
| G42U A47G C99G C116U | ≤ -4.2 |
| G42C G68U C85U G128A A150C | ≤ -4.2 |
| U44C C96U C103G A115C | -4.19 |

| Variant | polymerase ribozyme fitness (log ratio) |
| --- | --- |
| U44G G65A A66C A91G | ≤ -4.2 |
| U45A A47C U61A G92A C114A C123G U146G | ≤ -4.2 |
| U44G G92U | ≤ -4.2 |
| C43U G62A A119U U134A | ≤ -4.2 |
| U45A C85A C87G C114A A137C | ≤ -4.2 |
| U45A A64C C93A | ≤ -4.2 |
| G42U G65A C95U U139G | ≤ -4.2 |
| U45A C63U A121C | -3.18 |
| U44G C51U G74A G94C A120U C149G | ≤ -4.2 |
| C43G G86U U139C | -4.11 |
| U45A A49U | ≤ -4.2 |
| C43A A52C C75U U90G C95U C96G C114G U144G | ≤ -4.2 |
| U45A C99A A106U A121U C149G G152A | -4.01 |
| C43G G83C | ≤ -4.2 |
| U45A G133A U134C | ≤ -4.2 |
| U44A A47C | ≤ -4.2 |
| U44A U82G G84C C87G A113C C118U | ≤ -4.2 |
| C43A C57G U78G C96A A113G | ≤ -4.2 |
| C43U G67U | ≤ -4.2 |
| C43A U44A C118U | -4.17 |
| U45A C69A G88C A97C C125G | ≤ -4.2 |
| C43G C87U U109G | ≤ -4.2 |
| C43U G83U G92A | ≤ -4.2 |
| U45A G92C U144A | -3.41 |

| Variant | polymerase ribozyme fitness (log ratio) |
| --- | --- |
| U44G G59C U78C G117U G143C | ≤ -4.2 |
| U44A A52C C54A G92A G141C | ≤ -4.2 |
| G42C G84U A138G U146G | ≤ -4.2 |
| U45A A73U | ≤ -4.2 |
| U44A A49U C54U G59U G92A A106U | ≤ -4.2 |
| G42C U55A A66G U144A | ≤ -4.2 |
| G42C G88U C95A | ≤ -4.2 |
| U44A A89U G92C C95U | ≤ -4.2 |
| C43U C54G G92A U148G C149U | ≤ -4.2 |
| U44G A89U U144C | ≤ -4.2 |
| U44A U53C G86A A147C | ≤ -4.2 |
| G42U C108U C125U A138U U148A | -4.13 |
| U45A G46C U56A G84U G88U U90G C99A | ≤ -4.2 |
| C43U A106G | ≤ -4.2 |
| U44G C93U A137G U148C | ≤ -4.2 |
| G42U U44A C85A C96G A115C C129A | ≤ -4.2 |
| U45A C51U G74A C95A U135G | ≤ -4.2 |
| U45A C96U | -2.86 |
| U45A C96A | -2.56 |
| C43U C95A | -4.15 |
| U45A A52C G71A C99A G133U U145G | ≤ -4.2 |
| C43U A73G C79A U134A | ≤ -4.2 |
| U45A C85A C93U C96U C118A C132A | ≤ -4.2 |
| G42C U44A A49U A60C C79U C96U C125A A142G | ≤ -4.2 |

| Variant | polymerase ribozyme fitness (log ratio) |
| --- | --- |
| U45A G86A A142G | ≤ -4.2 |
| U44C G59U G92A U135A | ≤ -4.2 |
| G42U G84U G117U C118G A142G | ≤ -4.2 |
| U44A C57G C69G G80C U82A C108A U109G G141C | ≤ -4.2 |
| U44A C85U | -4.17 |
| U45A A47U G65C A66U G86C C87G C131G | ≤ -4.2 |
| G42C U44G A49U U56C G94U U111C G143A | ≤ -4.2 |
| G42C U44A G70C C96U G126U G141A | ≤ -4.2 |
| C43U U56A C72A C85A | ≤ -4.2 |
| U44A G62U G80C G140C | ≤ -4.2 |
| G42U C76G G80A C95G | ≤ -4.2 |
| C43G G50C G62A G84A G92C | ≤ -4.2 |
| U44G G46C A60C U61A C95U | ≤ -4.2 |
| U44A U144C | -3.62 |
| G42C G80C C93A U104A C108G U145A U146C | ≤ -4.2 |
| U45G A52G U82C U101G C131U | -3.32 |
| C43G C105A C123G U148A | ≤ -4.2 |
| G42U U53C C95G | ≤ -4.2 |
| U45A G92C | -3.75 |
| U45A G92U | -2.75 |
| U45A G140U | -4.19 |
| G42C U55A C85U | ≤ -4.2 |
| U44A G117U | ≤ -4.2 |
| U45A G65A G86U | ≤ -4.2 |

| Variant | polymerase ribozyme fitness (log ratio) |
| --- | --- |
| C43U A52U C85G G133U | ≤ -4.2 |
| U45A C57A C96U G124A | -3.11 |
| U45A G117U | -3.08 |
| C43U C54U U56G U78C C85G C93G G133A G136U G140U | ≤ -4.2 |
| U45A C93U A147U | -2.81 |
| U44G G58C G59C U61A G94C | ≤ -4.2 |
| U44G G88C C108G U144C C149U | ≤ -4.2 |
| U44A C72G C79A A150C | ≤ -4.2 |
| C43U U55A C87U | ≤ -4.2 |
| C43A U45G U90A U102G G140A A147C | ≤ -4.2 |
| C43U C85A C87U G94C | ≤ -4.2 |
| C43U G50U U55A C76U G136A G152U | ≤ -4.2 |
| G42U G70C G83C G141C | ≤ -4.2 |
| G42C U82G U104A C116U A137G G152A | ≤ -4.2 |
| U45A U77A C87U U90G G92C G126A A138G | ≤ -4.2 |
| U44G C54U C85G G117U A122U | ≤ -4.2 |
| U45G A115G | -1.98 |
| U44G G58U A98G U144A | ≤ -4.2 |
| G42U A73G U78G C93A U146A | ≤ -4.2 |
| G42C U45A G48U A49C C75U C118G U144C | ≤ -4.2 |
| C43U C79A | -4.15 |
| U44A U45A C51U C95A C103G | ≤ -4.2 |
| U45G A47C A142G | -3.91 |
| C43A A52C G94A | ≤ -4.2 |

| Variant | polymerase ribozyme fitness (log ratio) |
| --- | --- |
| G42U U45G U53C G88U A137C | ≤ -4.2 |
| C43U G84U A113U | ≤ -4.2 |
| U44A U53G G67A U78A G81C G88A G92C A138U | ≤ -4.2 |
| C43U G48A C57G C85U | ≤ -4.2 |
| U45G A66U U77C A107G G117U | ≤ -4.2 |
| U44A G50A C79A C99U U102G C108U | ≤ -4.2 |
| U44A C85U U139C | ≤ -4.2 |
| C43U A66G C105A | ≤ -4.2 |
| C43U G58C C95A U102C C103G C105G A110U | ≤ -4.2 |
| U44A G58A C93U C96G A97G A98U A119G U144C A150U | ≤ -4.2 |
| U44C G83C U148A | ≤ -4.2 |
| G42U A47C C87A U104G A107G | ≤ -4.2 |
| U44A G46C C75G U102A A120U U130G | -3.99 |
| G42U U56A A120U A142C | ≤ -4.2 |
| U45A C76U A98U G100C U101G A106U | -4 |
| C43A G88A | ≤ -4.2 |
| C43A C63U U90A | ≤ -4.2 |
| U44A U77A C95A G143A | ≤ -4.2 |
| U44G U56A C79A G124U | ≤ -4.2 |
| U45A A52C | ≤ -4.2 |
| U44A C51U C76U C95A | ≤ -4.2 |
| G42U U45C C72U C85G A98G A106C G117U | ≤ -4.2 |
| C43G C54A U55A A73G G74C G124C | ≤ -4.2 |
